Data from publication PMC10899662, “TopBP1 utilises a bipartite GINS binding mode to support genome replication” (Nature Communications, 2024).

How the values were obtained:
[1] = system: chromatin-bound replication proteins; experiment: Chromatin mass spectrometry (CHROMASS) from TopBP1-depleted Xenopus egg extracts; format: biochemical, Xenopus laevis; settings: mass spectrometry and immunoblotting; 75 min after starting replication, aphidicolin added, TopBP1 6 ng/µl; n = 4 for MS
Method: Fig. 6 GINS binding to TopBP1 is required for the origin firing step of replication. a–c Heat map showing the intensity of chromatin-bound proteins recovered from TopBP1-depleted interphase Xenopus egg extracts supplemented wild type or mutant TopBP1 determined by quantitative mass spectrometry. Chromatin was isolated 75 min after sperm addition. All extracts contained […] aphidicolin and, where indicated, […] geminin. […] For the intensities of all proteins see Supplementary Data 2. b, c Volcano plots highlighting a selection of differentially detected proteins in samples described in (a). Log2 transformed LFQ intensities from four replicates each were analysed by a two-sided Student’s t-test. […] Coomassie staining of the gel part containing histones served as a loading control.
For chromatin isolation, XTopBP1-depleted interphase egg extract was supplemented with 50 µg/ml aphidicolin and aliquoted into 15 µl samples before addition of buffer or recombinant TopBP1 to a final concentration 6 ng/µl. 2.25 µM Xgeminin or buffer were added before incubation for 10 min on ice. To start the replication, 9 ng sperm DNA/µl extract was added and incubated for 75 min at 23 °C. […] For MS analysis, four biological replicates of chromatin pellets were analysed by CHROMASS[45]. […]

GINS complex = experiment: Size exclusion chromatography co-elution with GINS; format: binding; settings: Superdex200; 20 µM of each component; 10 mM HEPES pH 7.5, 150 mM NaCl, 0.5 mM TCEP
Method: Recombinant TopBP1 and GINS proteins were mixed in an equimolar ratio to give a final concentration of 20 µM of each component and incubated on ice for at least 30 min prior to application to a Superdex200increase 10 300 column (GE Healthcare, Little Chalfont, UK) equilibrated in 10 mM HEPES pH 7.5, 150 mM NaCl, 0.5 mM TCEP.

B1: TopBP1-BRCT0-5-WT: recombinant TopBP1 amino acids 1–766, strep-tagged (protein)
chain: MSRNDKEPFFVKFLKSSDNSKCFFKALESIKEFQSEEYLQIITEEEALKIKENDRSLYICDPFSGVVFDHLKKLGCRIVGPQVVIFCMHHQRCVPRAEHPVYNMVMSDVTISCTSLEKEKREEVHKYVQMMGGRVYRDLNVSVTHLIAGEVGSKKYLVAANLKKPILLPSWIKTLWEKSQEKKITRYTDINMEDFKCPIFLGCIICVTGLCGLDRKEVQQLTVKHGGQYMGQLKMNECTHLIVQEPKGQKYECAKRWNVHCVTTQWFFDSIEKGFCQDESIYKTEPRPEAKTMPNSSTPTSQINTIDSRTLSDVSNISNINASCVSESICNSLNSKLEPTLENLENLDVSAFQAPEDLLDGCRIYLCGFSGRKLDKLRRLINSGGGVRFNQLNEDVTHVIVGDYDDELKQFWNKSAHRPHVVGAKWLLECFSKGYMLSEEPYIHANYQPVEIPVSHKPESKAALLKKKNSSFSKKDFAPSEKHEQADEDLLSQYENGSSTVVEAKTSEARPFNDSTHAEPLNDSTHISLQEENQSSVSHCVPDVSTITEEGLFSQKSFLVLGFSNENESNIANIIKENAGKIMSLLSRTVADYAVVPLLGCEVEATVGEVVTNTWLVTCIDYQTLFDPKSNPLFTPVPVMTGMTPLEDCVISFSQCAGAEKESLTFLANLLGASVQEYFVRKSNAKKGMFASTHLILKERGGSKYEAAKKWNLPAVTIAWLLETARTGKRADESHFLIENSTKEERSLETEITNGINLNSDTAEHP
modifications: left off: Strep, C-terminal, kept
notes: recombinant TopBP1 amino acids 1–766, strep-tagged
chromatin binding of replisome markers / Mcm2-7 [1]: Several replisome markers, including GINS and Cdc45, were detected on chromatin | co-elution with GINS from size exclusion column (GINS complex): co-eluted with the GINS complex
